Measured values taken from PMC9903292, “A Reductive Aminase Switches to Imine Reductase Mode for a Bulky Amine Substrate” (ACS Catalysis, 2023).

Columns and labels:
IR77 (wt-IR77) = biological target: T1, IR77 (wt-IR77) (Ensifer adhaerens, UniProt A0A0L8BGL4, A208N); assay: X-ray crystallography; assay type: binding; conditions: cofactor site at the dimer interface; P2_12_12_1, one open and one closed active site
T1 construct: gene AC244_29830; domain-swapped homodimer, two active sites at the interface

purified protein [1] = substrate: c1ccc2c(c1)CNC2; assay: purified protein; conditions: co-substrate 10 mM cyclohexanone, NADPH
purified protein [2] = substrate: C1CCNC1; assay: purified protein; conditions: NADPH
[3] = substrate: O=C1CCCCC1; assay: UV spectrophotometry, NADPH oxidation; assay type: biochemical, Ensifer adhaerens; conditions: co-substrate pyrrolidine b at constant concentration
[4] = substrate: O=C1CCCCC1; assay: UV spectrophotometry, NADPH oxidation; assay type: biochemical, Ensifer adhaerens; conditions: co-substrate pyrrolidine b at constant concentration; remark: listed apart in the source
Excerpt: UV spectrophotometry, NADPH oxidation on IR77 (wt-IR77)

[5] = imine probably formed in solution and then reduced by the enzyme
[6] = co-substrate 10 mM cyclohexanone, reductive amination
[7] = reductive amination, 16 mM and kcat 0.25
[8] = co-substrate cyclohexanone at constant concentration
[9] = imine probably formed in solution

Molecule | Km [4] [mM] | kcat [4] [s⁻¹] | kcat/Km [4] [M⁻¹ s⁻¹] | Km (purified protein [2]; [8]) [mM] | kcat (purified protein [2]; [8]) [s⁻¹] | kcat/Km (purified protein [2]; [8]) [M⁻¹ s⁻¹] | Km (purified protein [1]; [9]) [mM] | kcat (purified protein [1]; [9]) [s⁻¹] | further results
NC(=O)c1ccc[n+]([C@@H]2O[C@H](COP(=O)(O)OP(=O)(O)OC[C@H]3O[C@@H](n4cnc5c(N)ncnc54)[C@H](OP(=O)(O)O)[C@@H]3O)[C@@H](O)[C@H]2O)c1 [NADP^+] |  |  |  |  |  |  |  |  | X-ray crystallography (IR77 (wt-IR77)): electron density for the cofactor NADP^+ was again clearly visible within the active sites
IR77 (wt-IR77) (Ensifer adhaerens) (protein, domain-swapped homodimer, two active sites at the interface) MKPSISVLGTGRMGSALARALLQAGYRTVVWNRTSEKAEPLAALGATVAPTVRQAIDASGIVIVNVSDYAATSTLLRASDVTPGLRGKLIVELTSGTPEGARETSQWTAAHGARYLDGAILATPDFIGTDAGTILLSGALEPFAANEDVFRALGGNVQHIGTEPGLANALDSAVLALMWGALFGGLHAIAVCRAEEIDLGELGRQWAATAPVVEGLVADLIKRTSAGRFVSDAETLSSISPHYGAFQHLKELMEARRIDRTVVDGYDAIFRRAIASGHLHDDFAALSQFMGKAEQP |  |  |  |  |  |  |  |  | Km (purified protein [1]; [5]): 0.61 mM; kcat (purified protein [1]; [5]): 0.30 s⁻¹; Km (purified protein [2]; [6]): 17 mM; kcat (purified protein [2]; [6]): 0.12 s⁻¹; kcat/Km (purified protein [2]; [6]): 7.2 M⁻¹ s⁻¹; Km [3, 7]: 15 mM; kcat [3, 7]: 0.24 s⁻¹; kcat/Km [3, 7]: 16 M⁻¹ s⁻¹
IR77 (wt-IR77) (Ensifer adhaerens; C192I) (protein, domain-swapped homodimer, two active sites at the interface) MKPSISVLGTGRMGSALARALLQAGYRTVVWNRTSEKAEPLAALGATVAPTVRQAIDASGIVIVNVSDYAATSTLLRASDVTPGLRGKLIVELTSGTPEGARETSQWTAAHGARYLDGAILATPDFIGTDAGTILLSGALEPFAANEDVFRALGGNVQHIGTEPGLANALDSAVLALMWGALFGGLHAIAVIRAEEIDLGELGRQWAATAPVVEGLVADLIKRTSAGRFVSDAETLSSISPHYGAFQHLKELMEARRIDRTVVDGYDAIFRRAIASGHLHDDFAALSQFMGKAEQP | 16 | 0.33 | 21 | 9.0 | 0.1 | 11 |  |  | 
IR77 (wt-IR77) (Ensifer adhaerens; A119S) (protein, domain-swapped homodimer, two active sites at the interface) MKPSISVLGTGRMGSALARALLQAGYRTVVWNRTSEKAEPLAALGATVAPTVRQAIDASGIVIVNVSDYAATSTLLRASDVTPGLRGKLIVELTSGTPEGARETSQWTAAHGARYLDGSILATPDFIGTDAGTILLSGALEPFAANEDVFRALGGNVQHIGTEPGLANALDSAVLALMWGALFGGLHAIAVCRAEEIDLGELGRQWAATAPVVEGLVADLIKRTSAGRFVSDAETLSSISPHYGAFQHLKELMEARRIDRTVVDGYDAIFRRAIASGHLHDDFAALSQFMGKAEQP | 16 | 0.25 | 16 | 23 | 0.09 | 4 |  |  | 
IR77 (wt-IR77) (Ensifer adhaerens; A208S) (protein, domain-swapped homodimer, two active sites at the interface) MKPSISVLGTGRMGSALARALLQAGYRTVVWNRTSEKAEPLAALGATVAPTVRQAIDASGIVIVNVSDYAATSTLLRASDVTPGLRGKLIVELTSGTPEGARETSQWTAAHGARYLDGAILATPDFIGTDAGTILLSGALEPFAANEDVFRALGGNVQHIGTEPGLANALDSAVLALMWGALFGGLHAIAVCRAEEIDLGELGRQWASTAPVVEGLVADLIKRTSAGRFVSDAETLSSISPHYGAFQHLKELMEARRIDRTVVDGYDAIFRRAIASGHLHDDFAALSQFMGKAEQP |  |  |  | 9.7 | 0.21 | 22 | 0.60 | 0.23 | Km ([3]; kcat 0.44): 9.6 mM; kcat ([3]; kcat 0.44): 0.43 s⁻¹; kcat/Km ([3]; kcat 0.44): 45 M⁻¹ s⁻¹
IR77 (wt-IR77) (Ensifer adhaerens; A208N) (protein, domain-swapped homodimer, two active sites at the interface) MKPSISVLGTGRMGSALARALLQAGYRTVVWNRTSEKAEPLAALGATVAPTVRQAIDASGIVIVNVSDYAATSTLLRASDVTPGLRGKLIVELTSGTPEGARETSQWTAAHGARYLDGAILATPDFIGTDAGTILLSGALEPFAANEDVFRALGGNVQHIGTEPGLANALDSAVLALMWGALFGGLHAIAVCRAEEIDLGELGRQWANTAPVVEGLVADLIKRTSAGRFVSDAETLSSISPHYGAFQHLKELMEARRIDRTVVDGYDAIFRRAIASGHLHDDFAALSQFMGKAEQP |  |  |  |  |  |  | 0.94 | 0.28 | Km [3]: 26 mM; kcat [3]: 0.5 s⁻¹; kcat/Km [3]: 20 M⁻¹ s⁻¹
